The values that follow come from the Human Domainome abundance scans (Beltran et al. 2025).

To fix the notation:
B1: SWI/SNF complex subunit SMARCC1, residues 620 to 663; numbered along this chain, Q92922 (parent)
chain: GREWTEQETLLLLEALEMYKDDWNKVSEHVGSRTQDECILHFLR

± gives the uncertainty stated by the source.

Variants of B1 are the subject of this data set. Nature of the data set: abundance fitness (aPCA) (normalised: wild type 0, dead -1); higher = more abundant; growth selection in yeast, the domain comes from the species named. Conditions: Homo sapiens.
For GREWTEQETLLLLEALEMYKDDWNKVSEHNGSRTQDECILHFLR [V30N], the abundance fitness is -0.79 ± 0.31. As for GREWTEQETLLLLEALEMYKDDWNKVSEHYGSRTQDECILHFLR [V30Y], the abundance fitness is -1.05 ± 0.27. With GREWTEQETLLLLEALEMYKDDWNKVSEHAGSRTQDECILHFLR [V30A], the abundance fitness is -0.97 ± 0.29.

For GREWTEQETLLLLEALEMYKDDWNKVSEHTGSRTQDECILHFLR [V30T], the abundance fitness was -0.419 ± 0.12.

With GREWTEQETLLLLEALEMYKDDWNKVSEHHGSRTQDECILHFLR [V30H], the abundance fitness was -1.1 ± 0.27. In the case of GREWTEQETLLLLEALEMYKDDWNKVSEHLGSRTQDECILHFLR [V30L], the abundance fitness was -0.131 ± 0.098. The value for GREWTEQETLLLLEALEMYKDDWNKVSEHSGSRTQDECILHFLR [V30S] was -0.757 ± 0.17; that for GREWTEQETLLLLEALEMYKDDWNKVSEHMGSRTQDECILHFLR [V30M] was -0.019 ± 0.15. For GREWTEQETLLLLEALEMYKDDWNKVSEHCGSRTQDECILHFLR [V30C], the abundance fitness is -0.277 ± 0.13. Turning to GREWTEQETLLLLEALEMYKDDWNKVSEHPGSRTQDECILHFLR [V30P], the abundance fitness is -0.635 ± 0.12.

Take GREWTEQETLLLLEALEMYKDDWNKVSEHEGSRTQDECILHFLR [V30E]: the abundance fitness was -1.18 ± 0.32. In the case of GREWTEQETLLLLEALEMYKDDWNKVSEHGGSRTQDECILHFLR [V30G] it was -0.792 ± 0.14. The value for GREWTEQETLLLLEALEMYKDDWNKVSEHQGSRTQDECILHFLR [V30Q] was -0.764 ± 0.13; that for GREWTEQETLLLLEALEMYKDDWNKVSEHRGSRTQDECILHFLR [V30R] was -0.847 ± 0.16.

In the case of GREWTEQETLLLLEALEMYKDDWNKVSEHVGSYTQDECILHFLR [R33Y], the abundance fitness is -0.744 ± 0.15.

Turning to GREWTEQETLLLLEALEMYKDDWNKVSEHVGSETQDECILHFLR [R33E], the abundance fitness was -0.319 ± 0.15.

For GREWTEQETLLLLEALEMYKDDWNKVSEHVGSPTQDECILHFLR [R33P], the abundance fitness is -0.653 ± 0.13. As to GREWTEQETLLLLEALEMYKDDWNKVSEHVGSTTQDECILHFLR [R33T], the abundance fitness was -0.464 ± 0.13. The value for GREWTEQETLLLLEALEMYKDDWNKVSEHVGSGTQDECILHFLR [R33G] was -0.569 ± 0.094; that for GREWTEQETLLLLEALEMYKDDWNKVSEHVGSWTQDECILHFLR [R33W] was -0.404 ± 0.087; that for GREWTEQETLLLLEALEMYKDDWNKVSEHVGSMTQDECILHFLR [R33M] was -0.585 ± 0.13. In the case of GREWTEQETLLLLEALEMYKDDWNKVSEHVGSVTQDECILHFLR [R33V] it was -0.387 ± 0.09; in that of GREWTEQETLLLLEALEMYKDDWNKVSEHVGSLTQDECILHFLR [R33L], -0.832 ± 0.15. For the variant GREWTEQETLLLLEALEMYKDDWNKVSEHVGSNTQDECILHFLR [R33N], the abundance fitness is -0.884 ± 0.18.

Turning to GREWTEQETLLLLEALEMYKDDWNKVSEHVGSHTQDECILHFLR [R33H], the abundance fitness is -0.251 ± 0.087. The value for GREWTEQETLLLLEALEMYKDDWNKVSEHVGSITQDECILHFLR [R33I] was -0.885 ± 0.14; that for GREWTEQETLLLLEALEMYKDDWNKVSEHVGSSTQDECILHFLR [R33S] was -0.678 ± 0.099; that for GREWTEQETLLLLEALEMYKDDWNKVSEHVGSQTQDECILHFLR [R33Q] was -1.01 ± 0.44. The value for GREWTEQETLLLLEALEMYKDDWNKVSEHVGSCTQDECILHFLR [R33C] was -0.944 ± 0.17. The value for GREWTEQETLLLLEALEMYKDDWNKVSEHVGSATQDECILHFLR [R33A] was -0.285 ± 0.084; that for GREWTEQETLLLLEALEMYKDDWNKVSEHVGSKTQDECILHFLR [R33K] was 0.037 ± 0.08; that for GREWTEQETLLLLEALEMYKDDWNKVSEHVGSRTIDECILHFLR [Q35I] was -0.186 ± 0.18. As for GREWTEQETLLLLEALEMYKDDWNKVSEHVGSRTPDECILHFLR [Q35P], the abundance fitness was -0.136 ± 0.079.

As to GREWTEQETLLLLEALEMYKDDWNKVSEHVGSRTDDECILHFLR [Q35D], the abundance fitness came to 0.05 ± 0.41. In the case of GREWTEQETLLLLEALEMYKDDWNKVSEHVGSRTEDECILHFLR [Q35E] it was -0.075 ± 0.079. Consider GREWTEQETLLLLEALEMYKDDWNKVSEHVGSRTGDECILHFLR [Q35G], for which the abundance fitness turned out to be 0.056 ± 0.065.

Regarding GREWTEQETLLLLEALEMYKDDWNKVSEHVGSRTYDECILHFLR [Q35Y], the abundance fitness was -0.166 ± 0.1.

Consider GREWTEQETLLLLEALEMYKDDWNKVSEHVGSRTLDECILHFLR [Q35L], for which the abundance fitness was -0.077 ± 0.073.

GREWTEQETLLLLEALEMYKDDWNKVSEHVGSRTNDECILHFLR [Q35N]: the abundance fitness was found to be 0.063 ± 0.083. Regarding GREWTEQETLLLLEALEMYKDDWNKVSEHVGSRTCDECILHFLR [Q35C], the abundance fitness was determined as 0.079 ± 0.15. In the case of GREWTEQETLLLLEALEMYKDDWNKVSEHVGSRTHDECILHFLR [Q35H] it was 0.012 ± 0.095; in that of GREWTEQETLLLLEALEMYKDDWNKVSEHVGSRTKDECILHFLR [Q35K], 0.261 ± 0.061; in that of GREWTEQETLLLLEALEMYKDDWNKVSEHVGSRTVDECILHFLR [Q35V], -0.017 ± 0.064. In the case of GREWTEQETLLLLEALEMYKDDWNKVSEHVGSRTMDECILHFLR [Q35M] it was -0.061 ± 0.36; in that of GREWTEQETLLLLEALEMYKDDWNKVSEHVGSRTADECILHFLR [Q35A], -0.038 ± 0.076; in that of GREWTEQETLLLLEALEMYKDDWNKVSEHVGSRTSDECILHFLR [Q35S], 0.073 ± 0.058. The value for GREWTEQETLLLLEALEMYKDDWNKVSEHVGSRTWDECILHFLR [Q35W] was -0.336 ± 0.15; that for GREWTEQETLLLLEALEMYKDDWNKVSEHVGSRTTDECILHFLR [Q35T] was 0.044 ± 0.073.

Turning to GREWTEQETLLLLEALEMYKDDWNKVSEHVGIRTQDECILHFLR [S32I], the abundance fitness was -0.135 ± 0.085. In the case of GREWTEQETLLLLEALEMYKDDWNKVSEHVGARTQDECILHFLR [S32A] it was -0.015 ± 0.064. On to GREWTEQETLLLLEALEMYKDDWNKVSEHVGWRTQDECILHFLR [S32W], for which the abundance fitness is -0.622 ± 0.19. Consider GREWTEQETLLLLEALEMYKDDWNKVSEHVGMRTQDECILHFLR [S32M], for which the abundance fitness was -0.083 ± 0.087. In the case of GREWTEQETLLLLEALEMYKDDWNKVSEHVGNRTQDECILHFLR [S32N] it was 0.025 ± 0.097. For the variant GREWTEQETLLLLEALEMYKDDWNKVSEHVGCRTQDECILHFLR [S32C], the abundance fitness was -0.124 ± 0.082. With GREWTEQETLLLLEALEMYKDDWNKVSEHVGLRTQDECILHFLR [S32L], the abundance fitness was -0.224 ± 0.062.

As for GREWTEQETLLLLEALEMYKDDWNKVSEHVGTRTQDECILHFLR [S32T], the abundance fitness worked out at 0.203 ± 0.056.

For the variant GREWTEQETLLLLEALEMYKDDWNKVSEHVGPRTQDECILHFLR [S32P], the abundance fitness was -0.419 ± 0.1. In the case of GREWTEQETLLLLEALEMYKDDWNKVSEHVGHRTQDECILHFLR [S32H] it was -0.138 ± 0.064.
